Changes are numbered by the printed parent chain.
B1: CS1 (Fc fusion)
VH: QVQLQQSGAEVKKPGSSVKVSCKASGGTFSSYAISWVRQAPGQGLEWMGGIIPIFGTANYAQKFQGRVTITADESTSTAYMELSSLRSEDTAVYYCARDRGVGRGYSYGFLPLDYWGQGTLVTVSS
VL: DIQMTQSPLSLPATPGEPASISCRSSQSLLHSDGYSYLHWYVQKPGQSPQLLISADSNRASGVPGRFSGSGSGTDFTLKISRVEAEDVGVYYCMQALQTPWTFGQGTKLDIK
notes: also called 抗体CS1
B2: CS2 (Fc fusion)
VH: EVQLVQSGAEVKKPGASVKVSCKASGGTFSSYAISWVRQAPGQGLEWMGGIIPIFGTANYAQKFQGRVTITADESTSTAYMELSSLRSEDTAVYYCARGSGDYGMDVWGQGTTVTVSS
VL: QSALTQPASVSGSPGQSITISCTGTSSDVGGYNYVSWYQQHPGKAPKLVISEVRNRPSGVSNRFSGSKSGNTASLTISGLQAEDEADYYCSSYTTRDTRVFGGGTQLTVL
notes: also called 抗体CS2
B3: CS3 (Fc fusion)
VH: B2 VH with A16S, E74K
VL: B2 VL with G31L, V49M, I50V, R54S, Q106K, L107V
notes: also called 抗体CS3
B4: CS7 (Fc fusion)
VH: B2 VH with A16S, F55L, T57I, E74K, G104S, T113L
VL: B2 VL with T5A, S36A, V49M, S51Y, R54S, Q106K
notes: also called 抗体CS7

These binders were tested against T1, 新型冠状病毒(2019-nCoV)Spike蛋白 (全长三聚体S蛋白) (新型冠状病毒(2019-nCoV), UniProt P0DTC2 16-1213) (assay: Octet Blitz (BLI), scFv-Fc, apparent affinity).
T1 construct: also called 病毒S蛋白

Binder | Kd
B1 | 1.2 nM
B2 | 2.1 nM
B3 | 23.2 nM
B4 | 12.3 nM
